Columns and labels:
[1] = molecular target: soluble CD8αα (human) (UniProt P01732); assay: surface plasmon resonance
[2] = molecular target: soluble CD8αα (human) (UniProt P01732); assay: surface plasmon resonance with sCD8αα wt; mean KD (n=3) printed over the bar, error bar drawn; sheet caption 'HLA A*0201 [..] tetramers'
[3] = molecular target: soluble CD8αα (human) (UniProt P01732); assay: surface plasmon resonance, biotinylated pMHCI monomer
[4] = molecular target: soluble CD8αα (human) (UniProt P01732); assay: method not given

| Substance | Kd [1] [µM] | Kd [2] [µM] | Kd [3] [µM] | Kd [4] [µM] |
| --- | --- | --- | --- | --- |
| 245A substituted HLA A*68011 biotinylated pMHCI (from UniProt P61769 21-119) (peptide-MHC) | 102 |  |  |  |
| wild type HLA A*0201 biotinylated pMHCI monomer (from UniProt P61769 21-119) (peptide-MHC) |  | 128 | 135 | 128 |
| wild type HLA A*68011 biotinylated pMHCI (from UniProt P61769 21-119) (peptide-MHC) | 980 |  |  |  |
| A2Kb chimeric class I pMHCI (HLA A2 with the α3 domain of murine H-2K^b) (from UniProt P61769 21-119) (peptide-MHC) |  |  |  | < 5 |
